Target: T1, GST-MPSR1 (Misfolded Protein Sensing RING E3 ligase 1) (Arabidopsis thaliana, UniProt Q9LQX2 1-204)
T1 sequence (looked up): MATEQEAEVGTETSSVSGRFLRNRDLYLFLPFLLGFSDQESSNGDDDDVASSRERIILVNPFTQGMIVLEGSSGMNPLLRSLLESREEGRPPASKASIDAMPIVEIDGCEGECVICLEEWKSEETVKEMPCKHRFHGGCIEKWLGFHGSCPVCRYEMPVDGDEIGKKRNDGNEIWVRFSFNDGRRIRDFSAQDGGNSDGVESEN
Test: pull-down

B1: His-MPSR1-DN (enzyme, Arabidopsis thaliana, UniProt Q9LQX2 1-204, looked up)
chain: MATEQEAEVGTETSSVSGRFLRNRDLYLFLPFLLGFSDQESSNGDDDDVASSRERIILVNPFTQGMIVLEGSSGMNPLLRSLLESREEGRPPASKASIDAMPIVEIDGCEGECVICLEEWKSEETVKEMPCKHRFHGGCIEKWLGFHGSCPVSRYEMPVDGDEIGKKRNDGNEIWVRFSFNDGRRIRDFSAQDGGNSDGVESEN
binding result: binds
